Measured values reported in PMC8024055 (Nature, 2020).

How the values were obtained:
SEC = molecular target: the molecule itself; test: SEC
[1] = molecular target: T1, His-MBP-FBXL17^310-701/Skp1 complex ( | human, UniProt Q9UF56;P63208); test: FRET or BRET
FRET or BRET = molecular target: the molecule itself; test: FRET or BRET
[2] = molecular target: T1, His-MBP-FBXL17^310-701/Skp1 complex; test: pull-down
[3] = molecular target: FBXL17^310-701 (tags removed, in the structures) (UniProt Q9UF56 310-701); test: crystal structure
Sequence of FBXL17^310-701 (tags removed, in the structures) (Q9UF56 310-701): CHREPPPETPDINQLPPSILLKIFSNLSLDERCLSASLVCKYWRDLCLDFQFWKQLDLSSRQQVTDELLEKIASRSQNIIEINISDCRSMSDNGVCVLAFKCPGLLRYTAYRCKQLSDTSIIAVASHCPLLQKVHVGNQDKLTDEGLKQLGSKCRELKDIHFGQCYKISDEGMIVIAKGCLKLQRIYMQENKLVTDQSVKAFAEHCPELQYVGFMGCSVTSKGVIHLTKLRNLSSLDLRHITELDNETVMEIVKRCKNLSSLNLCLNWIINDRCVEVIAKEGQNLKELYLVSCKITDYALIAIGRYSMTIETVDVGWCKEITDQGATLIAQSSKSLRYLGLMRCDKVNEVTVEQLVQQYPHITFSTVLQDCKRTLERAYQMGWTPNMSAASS

T1 sequence (Q9UF56 310-701, chain 1 of 2): as the sequence (Q9UF56 310-701) above
T1 sequence (P63208 whole entry, chain 2 of 2): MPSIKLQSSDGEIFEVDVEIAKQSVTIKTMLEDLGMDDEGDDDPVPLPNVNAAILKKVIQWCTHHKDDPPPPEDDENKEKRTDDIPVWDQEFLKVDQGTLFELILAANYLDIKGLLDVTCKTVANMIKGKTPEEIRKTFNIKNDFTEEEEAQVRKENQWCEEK

| Binder | binding result [1] | binding result [2] | binding result [3] | stoichiometry N (SEC) | binding result (FRET or BRET) |
| --- | --- | --- | --- | --- | --- |
| KEAP1^48-180 S172A (recombinant BTB domain, called wild type) (domain or fragment) GNRTFSYTLEDHTKQAFGIMNELRLSQQLCDVTLQVKYQDAPAAQFMAHKVVLASSSPVFKAMFTNGLREQGMEVVSIEGIHPKVMERLIEFAYTASISMGEKCVLHVMNGAVMYQIDSVVRACADFLVQQLD | – | – | – | 2 | – |
| KEAP1^48-180 S172A/V98A (recombinant BTB domain) (domain or fragment) GNRTFSYTLEDHTKQAFGIMNELRLSQQLCDVTLQVKYQDAPAAQFMAHKAVLASSSPVFKAMFTNGLREQGMEVVSIEGIHPKVMERLIEFAYTASISMGEKCVLHVMNGAVMYQIDSVVRACADFLVQQLD | – | – | – | 2 | – |

More lines, main results first:

| binding result [1] | binding result [2] | binding result [3] | Binder | stoichiometry N (SEC) | binding result (FRET or BRET) |
| --- | --- | --- | --- | --- | --- |
| binds | – | – | KEAP1^48-180 S172A/F64A/R116C labeled with Alexa Fluor 555 or Alexa Fluor 647 (domain or fragment) GNRTFSYTLEDHTKQAAGIMNELRLSQQLCDVTLQVKYQDAPAAQFMAHKVVLASSSPVFKAMFTNGLCEQGMEVVSIEGIHPKVMERLIEFAYTASISMGEKCVLHVMNGAVMYQIDSVVRACADFLVQQLD | – | binds |
| – | binds | binds | KEAP1^48-180 S172A/F64A (recombinant BTB domain) (domain or fragment) GNRTFSYTLEDHTKQAAGIMNELRLSQQLCDVTLQVKYQDAPAAQFMAHKVVLASSSPVFKAMFTNGLREQGMEVVSIEGIHPKVMERLIEFAYTASISMGEKCVLHVMNGAVMYQIDSVVRACADFLVQQLD | 2 | – |
